Results reported in patent US20260124245A1 (UNIVERSITY OF NORTH CAROLINA AT CHAPEL HILL, published 2026).
Ends that are not written are not given here.

Biological target: T1, Base Leucine Zipper (B-LZ)
T1 construct: In FRET it carried an AF555 label; In the cell and EV assays it was conjugated to the surface through Sulfo-SMCC; also called SynZip2
Assay: titration ELISA on coated B-LZ, anti-FLAG-HRP detection
Procedure: Enzyme-linked immunosorbent assay (ELISA). Nunc MaxiSorp 96-well plates were coated with Base-Leucine Zipper (B-LZ) at 2.5 μg/mL and incubated overnight at 4° C. The plate was thoroughly washed with 0.1% TBS-Tween (TBST). The wells were washed with 0.1% PBST and then blocked with BSA blocking buffer for 1 h at room temperature before incubation with complementary leucine zipper (C-LZ) concentrations ranging from 1 μM to […] at room temperature for 2 hours before washing. Washes were followed by the addition of 100 μL of anti-FLAG horseradish peroxidase (HRP)-linked monoclonal antibody (1:10,000 mAb, #A8592, Sigma Aldrich, St. Louis, MO) for 1 h at room temperature with rocking. The wells were washed with 0.1% PBST followed by the addition of TMB-ELISA substrate. After a 10 min incubation, 2 M H₂SO₄ was added to stop the reaction. The absorbance was measured at 450 nm and 570 nm with a SpectraMax M5 plate reader (Molecular Devices, Sunnyvale, CA).
The proteins were then expressed for in vitro testing. Using titration ELISA, the binding affinity of each sequence was tested for its affinity to the base leucine zipper (B-LZ). […] This decision was based on its high binding affinity and high expression levels in E. coli. […]

fold improvement in B-LZ binding compared with C-LZ 10 nM: 5 fold
B1: NIS1 (high-affinity complementary leucine zipper, HiA C-LZ) (designed binder)
chain: NLVAQLENEVASLENENETLKNKNLQKKNLIAYLEQEIANLRKKIEG
modifications: also: purification and detection tags and conjugation cysteine, position not given here
notes: NIS1 is a mutant of C-LZ 10 nM; not shown: purification and detection tags and conjugation cysteine (Ni-NTA purified, anti-FLAG detected, thiol conjugated); letter
